US20210145878A1
Numbering of substitutions follows the chain as printed.

B1: SN8 #51 (protein, part only; not given: hinge, transmembrane and signaling domains, part only)
CAR polypeptide, part: DIVLTQSPDSLAVSLGERATINCKASQSVDYEGDSFLNWYQQKPGQPPKLLIYAASNLESGVPDRFSGSGSGTDFTLTISSLQAEDVAVYYCQQSNEDPLTFGGGTKVEIKGGSEGKSSGSGSESKSTGGSQVQLVQSGAEVKKPGASVKVSCKASGYTFTGYWIEWVRQAPGQGLEWMGEILPGGGDTNYNQKFQGKVTFTRDTSTSTAYMELSSLRSEDTAVYYCARRVPVYFDYWGQGTLVTVSS
B2: CD9W23 LH scFv-Fc (Fc fusion, not shown: a dimerising Fc or GST)
chain: B1 CAR polypeptide, part with E32D, A171R
B3: CD9W59 LH scFv-Fc (Fc fusion, not shown: a dimerising Fc or GST)
chain: B1 CAR polypeptide, part with E32D, A210V

Assays:
CD79b-AF647 = assay: flow cytometry, CAR-transduced primary human T cells stained with recombinant human CD79b extracellular domain-AF647
Sequence of CD79b-AF647 (chain, as listed by the source limits assumed): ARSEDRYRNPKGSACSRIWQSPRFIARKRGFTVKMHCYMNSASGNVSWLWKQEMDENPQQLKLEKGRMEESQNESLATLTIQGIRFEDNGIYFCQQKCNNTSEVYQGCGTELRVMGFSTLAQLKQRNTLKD

[1] = biological target: recombinant human CD79b isoform-2 (short) (human) (UniProt P40259); assay: SPR, Biacore 8k; scFv-Fc captured by anti-human Fc, CD79b as analyte; 1:1 Langmuir

Row | aCD79b CAR+ (frequency of CAR+ cells) (CD79b-AF647) | Kd [1] | Binder
1 | 0.048 |  | B1
2 |  | 11.5 nM | B2
3 |  | 6.9 nM | B3
